B1: human NMT2 (N-myristoyltransferase 2), wild type, O60551 R306E; R324E; K327E (protein)
chain: MAEDSESAASQQSLELDDQDTCGIDGDNEEETEHAKGSPGGYLGAKKKKKKQKRKKEKPNSGGTKSDSASDSQEIKIQQPSKNPSVPMQKLQDIQRAMELLSACQGPARNIDEAAKHRYQFWDTQPVPKLDEVITSHGAIEPDKDNVRQEPYSLPQGFMWDTLDLSDAEVLKELYTLLNENYVEDDDNMFRFDYSPEFLLWALRPPGWLLQWHCGVRVSSNKKLVGFISAIPANIRIYDSVKKMVEINFLCVHKKLRSKRVAPVLIREITRRVNLEGIFQAVYTAGVVLPKPIATCRYWHRSLNPEKLVEVKFSHLSRNMTLQETMELYRLPDVTKTSGLRPMEPKDIKSVRELINTYLKQFHLAPVMDEEEVAHWFLPREHIIDTFVVESPNGKLTDFLSFYTLPSTVMHHPAHKSLKAAYSFYNIHTETPLLDLMSDALILAKSKGFDVFNALDLMENKTFLEKLKFGIGDGNLQYYLYNWRCPGTDSEKVGLVLQ
B2: human NMT2 (N-myristoyltransferase 2), wild type, O60551 R306E (protein)
chain: B1 chain with E324R, E327K
B3: human NMT2 (N-myristoyltransferase 2), wild type, O60551 R324E; K327E (protein)
chain: B1 chain with E306R

Changes are numbered by the printed parent chain. Numbers in names are those of the source.

One test has as its target ribosomes from HEK293 cells (80S ribosomes, empty ribosomes), P62750;P62906. The test can be described thus: co-sedimentation assay with immunoblot quantification. The settings on record: chain shown with the change; NMT2 alone with ribosomes (no NAC); three independent replicates; parent: est. 1.0; read off a plot. For orientation: In western blotting, separated proteins are transferred to a membrane and probed.
B1: the ratio to parent is 0.27.

On to B2, for which the ratio to parent came out at 0.35.

On to B3, for which the ratio to parent was found to be 0.32.

Staying with this test, now noted: chain shown with the change; NMT2 with ribosomes in the presence of NAC; three independent replicates; parent: est. 2.2; read off a plot.
Take B1: the response (normalized intensity) was determined as 0.3.

On to B2, for which the response (normalized intensity) came out at 0.85.

As to B3, the response (normalized intensity) is 0.45.

The values above are taken from publication PMC12623983.
